According to patent US20020146411A1, “Anticoagulant agents useful in treatment of thrombosis” (SmithKline Beecham Corporation, priority 1996, published 2002):

B1: murine anti-Factor IX monoclonal antibody BC2 (antibody, mouse IgG2a, V domains shown)
VH: QIQLVQSGPELKKPGETVKISCKASGYTFTNYGMNWVKQAPGKGLKWMGWINTRNGKSTYVDDFKGRFAFSLESSASTANLQIDNLKDEDTATYFCTREGNMDGYFPFTYWGQGTLVTVSA
VL: QIVLSQSPAILSASPGEKVTMTCRASSSVNYMHWYQQKPGSSPKPWIYATSNLASGVPARFSGSGSGTSYSLTISRVEAEDAATYYCQQWSINPRTFGGGTKLEIKR
B2: humanized anti-Factor IX monoclonal antibody SB 249417 (antibody, V domains shown)
VH: QVQLVQSGSELKKPGASVKVSCKASGYTFTNYGMNWVRQAPGQGLKWMGWINTRNGKSTYVDDFKGRFVFSLDSSVSTAYLQISSLKADDTAVYYCTREGNMDGYFPFTYWGQGTLVTVSS
VL: QIVLTQSPSSLSASVGDRVTITCRASSSVNYMHWYQQKPGKAPKPWIYATSNLASGVPSRFSGSGSGTDYTFTISSLQPEDIATYYCQQWSINPRTFGQGTKVEIKR
B3: humanized anti-Factor IX monoclonal antibody SB 249413 (antibody, V domains shown)
VH: QVQLVQSGSELKKPGASVKVSCKASGYTFTNYGMNWVRQAPGQGLEWMGWINTRNGKSTYVDDFKGRFVFSLDTSVSTAYLQISSLKADDTAVYYCAREGNMDGYFPFTYWGQGTLVTVSS
VL: EIVLTQSPATLSLSPGERATLSCRASSSVNYMHWYQQRPGQAPRLLIYATSNLASGIPARFSGSGSGTDFTLTISSLEPEDFAVYYCQQWSINPRTFGGGTKVEIKR
B4: humanized anti-Factor IX monoclonal antibody SB 249415 (antibody, V domains shown)
VH: QVQLVQSGSELKKPGASVKVSCKASGYTFTNYGMNWVRQAPGQGLKWMGWINTRNGKSTYVDDFKGRFVFSLDSSVSTAYLQISSLKADDTAVYYCTREGNMDGYFPFTYWGQGTLVTVSS
VL: EIVLTQSPATLSLSPGERATLSCRASSSVNYMHWYQQRPGQAPKPWIYATSNLASGVPARFSGSGSGTDFTLTISSLEPEDFAVYYCQQWSINPRTFGGGTKVEIKR
B5: humanized anti-Factor IX monoclonal antibody SB 249416 (antibody, V domains shown)
VH: QVQLVQSGSELKKPGASVKVSCKASGYTFTNYGMNWVRQAPGQGLKWMGWINTRNGKSTYVDDFKGRFVFSLDSSVSTAYLQISSLKADDTAVYYCTREGNMDGYFPFTYWGQGTLVTVSS
VL: EIVLTQSPATLSLSPGERATLSCRASSSVNYMHWYQQRPGQAPKPWIYATSNLASGVPARFSGSGSGTDYTLTISSLEPEDFAVYYCQQWSINPRTFGGGTKVEIKR
B6: humanized anti-Factor IX monoclonal antibody SB 257731 (antibody, V domains shown)
VH: QVQLVQSGSELKKPGASVKVSCKASGYTFTNYGMNWVRQAPGQGLKWMGWINTRNGKSTYVDDFKGRFVFSLDSSVSTAYLQISSLKADDTAVYYCTREGNMDGYFPFTYWGQGTLVTVSS
VL: QIVLTQSPATLSLSPGERATLSCRASSSVNYMHWYQQRPGQAPKPWIYATSNLASGVPARFSGSGSGTDYTLTISSLEPEDFAVYYCQQWSINPRTFGGGTKVEIK
B7: humanized anti-Factor IX monoclonal antibody SB 257732 (antibody, V domains shown)
VH: QIQLVQSGSELKKPGASVKVSCKASGYTFTNYGMNWVRQAPGQGLEWMGWINTRNGKSTYVDDFKGRFVFSLDTSVSTAYLQISSLKAEDTAVYFCTREGNMDGYFPFTYWGQGTLVTVSS
VL: QIVLTQSPSSLSASVGDRVTITCRASSSVNYMHWYQQKPGKAPKPWIYATSNLASGVPSRFSGSGSGTDYTLTISSLQPEDFATYYCQQWSINPRTFGGGTKLEIKR

Experiments:
human Factor IX (human) = human Factor IX (human) (UniProt P00740); assay: cell-based or functional assay
[1] = molecular target: recombinant human Factor IX (rhFIX, Genetics Institute) (human) (UniProt P00740); assay: biosensor (BIAcore)
[2] = molecular target: recombinant human Factor IX (rhFIX, Genetics Institute) (human) (UniProt P00740); assay: titration calorimetry, 25° C. (calculated from the van't Hoff equation), 10 mM CaCl2
[3] = molecular target: recombinant human Factor IX (rhFIX, Genetics Institute) (human) (UniProt P00740); assay: titration calorimetry, 37° C., 10 mM CaCl2
[4] = molecular target: recombinant human Factor IX (rhFIX, Genetics Institute) (human) (UniProt P00740); assay: BIAcore, antibody captured on immobilised protein A, rhFIX at 49 nM, 5 mM Ca2+
[5] = molecular target: recombinant human Factor IX (rhFIX, Genetics Institute) (human) (UniProt P00740); assay: BIAcore, calculated from kdiss and kass
[6] = molecular target: recombinant human Factor IX (rhFIX, Genetics Institute) (human) (UniProt P00740); assay: titration microcalorimetry, 106 uM FIX injected into 2 uM mAb
[7] = molecular target: recombinant human Factor IX (rhFIX, Genetics Institute) (human) (UniProt P00740); assay: isothermal titration calorimetry
[8] = molecular target: recombinant human Factor IX (rhFIX, Genetics Institute) (human) (UniProt P00740); assay: isothermal titration calorimetry, 25° C.
[9] = molecular target: recombinant human Factor IX (rhFIX, Genetics Institute) (human) (UniProt P00740); assay: titration calorimetry
[10] = molecular target: recombinant human Factor IX (rhFIX, Genetics Institute) (human) (UniProt P00740); assay: BIAcore kinetics of Factor IX binding
[11] = molecular target: recombinant human Factor IX (rhFIX, Genetics Institute) (human) (UniProt P00740); assay: BIAcore, calculated

Sequence of human Factor IX (human) (P00740 47-461 limits assumed): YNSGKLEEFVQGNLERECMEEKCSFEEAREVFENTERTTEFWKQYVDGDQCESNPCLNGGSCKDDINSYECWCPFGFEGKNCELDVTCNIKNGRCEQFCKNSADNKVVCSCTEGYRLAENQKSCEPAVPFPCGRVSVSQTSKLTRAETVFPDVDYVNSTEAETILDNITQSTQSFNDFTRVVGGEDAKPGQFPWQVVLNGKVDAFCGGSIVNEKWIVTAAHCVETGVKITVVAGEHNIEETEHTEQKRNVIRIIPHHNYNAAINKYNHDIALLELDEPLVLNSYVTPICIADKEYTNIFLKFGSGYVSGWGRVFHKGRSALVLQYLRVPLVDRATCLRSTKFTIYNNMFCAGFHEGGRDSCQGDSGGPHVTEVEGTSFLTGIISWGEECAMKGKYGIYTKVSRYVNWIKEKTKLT
Sequence of recombinant human Factor IX (rhFIX, Genetics Institute) (human) (P00740 47-461 limits assumed): as above

Kd [2] [nM]	Kd [3] [nM]	Molar Binding Ratio FIX/mAb [9] [FIX/mAb]	koff [10] [s⁻¹]	kon [10] [M⁻¹ s⁻¹]	Kd [11] [nM]	further results	Binder
						IC50, nM (aPTT of human plasma) (human Factor IX (human)): 50 nM; aPTT at saturating antibody (human Factor IX (human)): 90 s; aPTTmax / aPTTnormal × 100 % (human Factor IX (human)): 350%	B1
4	12	1.5				Kd [1]: 2 nM; koff [1]: 0.0004 s⁻¹; kon [1]: 200000 M⁻¹ s⁻¹; koff [4]: 0.00041 s⁻¹; kon [4]: 200000 M⁻¹ s⁻¹; Kd [5]: 1.9 nM; molar binding ratio at the equivalence point [6]: 2 FIX per mAb; Stoichiometry of Factor IX Binding (moles Factor IX per mole mAb) [7]: 1.5; Kd [8]: 4 nM	B2
6	12	1.9	0.0028	650000	3.7 to 5.1		B3
3	7	1.7	0.00018	750000	1.1 to 2.3		B4
			0.00041	520000	0.8		B5
			0.00099	920000	1.1		B6
4	9	1.8	0.0012	1.1e+06	1.5		B7
